# T1: S. aureus SpsB signal peptidase (Staphylococcus aureus) (UniProt P0A070)
# T1 sequence: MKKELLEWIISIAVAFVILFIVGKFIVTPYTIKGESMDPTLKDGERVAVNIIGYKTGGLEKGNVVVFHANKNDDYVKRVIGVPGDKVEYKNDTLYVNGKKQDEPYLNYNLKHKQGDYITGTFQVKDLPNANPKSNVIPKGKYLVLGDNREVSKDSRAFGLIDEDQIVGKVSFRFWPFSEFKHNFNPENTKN
# T2: Decanoyl-Lys(TAMRA)-Thr-Pro-Thr-Ala-Lys-Ala-Ala-Ser-Lys-Lys(Flu)-Asp-Asp-OH, prep-hplc peak 24C
# T2 chain: KTPTAKAASKKDD
# T3: Decanoyl-Lys(Bio-X)-Thr-Pro-Thr-Ala-Lys-Ala-Ala-Ser-Lys-Ile-Asp-Asp-Gly-Lys(Flu)-Asp-OH
# T3 chain: KTPTAKAASKIDDGKD
# T4: Decanoyl-Lys(Flu)-Thr-Pro-Thr-Ala-Lys-Ala-Ala-Ser-Lys-Lys(TAMRA)-Asp-Asp-OH, prep-hplc peak 23C
# T4 chain: KTPTAKAASKKDD
# T5: Decanoyl-Leu-Thr-Pro-Lys(Bio-X)-Ala-Lys-Ala-Ala-Ser-Lys-Lys(Flu)-Asp-Asp-OH
# T5 chain: LTPKAKAASKKDD
# T6: Decanoyl-Lys(TAMRA)-Thr-Pro-Thr-Ala-Lys-Ala-Ala-Ser-Lys-Lys(Flu)-Asp-Asp-OH, prep-hplc peak 24D
# T6 chain: KTPTAKAASKKDD
# T7: Decanoyl-Lys(Flu)-Thr-Pro-Thr-Ala-Lys-Ala-Ala-Ser-Lys-Lys(Bio-X)-Asp-Asp-OH
# T7 chain: KTPTAKAASKKDD
# T8: Decanoyl-Leu-Thr-Pro-Lys(Bio-X)-Ala-Lys-Ala-Ala-Ser-Lys-Ile-Asp-Asp-Gly-Lys(Flu)-Asp-OH
# T8 chain: LTPKAKAASKIDDGKD
# B1: S. aureus SpsB signal peptidase (protein)
# chain: T1 sequence
# Tests used:
# [1] = target: T1, S. aureus SpsB signal peptidase (Staphylococcus aureus); assay: cell-based or functional assay
# [2] = target: T2, Decanoyl-Lys(TAMRA)-Thr-Pro-Thr-Ala-Lys- …
# [3] = target: T3, Decanoyl-Lys(Bio-X)-Thr-Pro-Thr-Ala-Lys- …
# [4] = target: T4, Decanoyl-Lys(Flu)-Thr-Pro-Thr-Ala-Lys-Al …
# [5] = target: T5, Decanoyl-Leu-Thr-Pro-Lys(Bio-X)-Ala-Lys- …
# [6] = target: T6, Decanoyl-Lys(TAMRA)-Thr-Pro-Thr-Ala-Lys- …
# [7] = target: T7, Decanoyl-Lys(Flu)-Thr-Pro-Thr-Ala-Lys-Al …
# [8] = target: T8, Decanoyl-Leu-Thr-Pro-Lys(Bio-X)-Ala-Lys- …
molecule,measurement,setting,value
Decanoyl-Lys(Bio-X)-Thr-Pro-Thr-Ala-Lys-Ala-Ala-Ser-Lys-Ile-Asp-Asp-Gly-Lys(Flu)-Asp-OH (peptide),"signal change (fluorescence polarisation assay, developed with avidin)",[1],> 150 mP
Decanoyl-Lys(Flu)-Thr-Pro-Thr-Ala-Lys-Ala-Ala-Ser-Lys-Lys(Bio-X)-Asp-Asp-OH (peptide),"signal change (fluorescence polarisation assay, developed with avidin)",[1],> 150 mP
Decanoyl-Leu-Thr-Pro-Lys(Bio-X)-Ala-Lys-Ala-Ala-Ser-Lys-Ile-Asp-Asp-Gly-Lys(Flu)-Asp-OH (peptide),"signal change (fluorescence polarisation assay, developed with avidin)",[1],> 150 mP
"Decanoyl-Lys(TAMRA)-Thr-Pro-Thr-Ala-Lys-Ala-Ala-Ser-Lys-Lys(Flu)-Asp-Asp-OH, prep-hplc peak 24C (peptide)",signal change (fluorescence quench assay),[1],> 10 fold
Decanoyl-Leu-Thr-Pro-Lys(Bio-X)-Ala-Lys-Ala-Ala-Ser-Lys-Lys(Flu)-Asp-Asp-OH (peptide),"signal change (fluorescence polarisation assay, developed with avidin)",[1],> 150 mP
"Decanoyl-Lys(TAMRA)-Thr-Pro-Thr-Ala-Lys-Ala-Ala-Ser-Lys-Lys(Flu)-Asp-Asp-OH, prep-hplc peak 24D (peptide)",signal change (fluorescence quench assay),[1],> 10 fold
B1,catalytic efficiency kcat/Km (fluorescence quench assay),[2],kcat/Km >/=5000 M^-1 sec^-1
same,catalytic efficiency kcat/Km (fluorescence polarisation assay),[3],kcat/Km >/=8000 M^-1 sec^-1
same,catalytic efficiency kcat/Km (fluorescence quench assay),[4],kcat/Km >/=5000 M^-1 sec^-1
same,catalytic efficiency kcat/Km (fluorescence polarisation assay),[5],kcat/Km >/=8000 M^-1 sec^-1
same,kcat/Km (fluorescence correlation spectroscopy assay),[5],kcat/Km=6800 M^-1s^-1
same,catalytic efficiency kcat/Km (fluorescence quench assay),[6],kcat/Km >/=5000 M^-1 sec^-1
same,catalytic efficiency kcat/Km (fluorescence polarisation assay),[7],kcat/Km >/=8000 M^-1 sec^-1
same,catalytic efficiency kcat/Km (fluorescence polarisation assay),[8],kcat/Km >/=8000 M^-1 sec^-1
